Experimental data as given in patent publication US20120076796A1 (Ablynx, published 2012).

T1: biotinylated rh Ang2 (R&D Systems Cat No BT623, Lot No BNR174091) (human, UniProt O15123 19-496, limits assumed, biotinylated (sites not given))
T1 construct: Bought reagent; also called biotinylated Ang2
T1 sequence (looked up): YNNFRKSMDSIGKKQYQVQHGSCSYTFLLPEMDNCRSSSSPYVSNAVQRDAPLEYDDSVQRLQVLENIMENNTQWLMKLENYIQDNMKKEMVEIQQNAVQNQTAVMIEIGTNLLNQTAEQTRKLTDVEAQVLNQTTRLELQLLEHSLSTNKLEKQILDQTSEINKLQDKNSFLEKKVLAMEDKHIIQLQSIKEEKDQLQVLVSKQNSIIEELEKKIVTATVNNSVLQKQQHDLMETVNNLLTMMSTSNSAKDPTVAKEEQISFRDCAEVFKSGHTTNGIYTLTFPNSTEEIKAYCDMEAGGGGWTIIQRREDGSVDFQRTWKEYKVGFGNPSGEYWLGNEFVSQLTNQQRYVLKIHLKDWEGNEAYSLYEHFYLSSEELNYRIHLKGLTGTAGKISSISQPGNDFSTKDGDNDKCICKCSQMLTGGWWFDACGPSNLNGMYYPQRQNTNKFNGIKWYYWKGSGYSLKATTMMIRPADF

T2: Recombinant human Angiopoietin-4 (R&D Systems Cat No 964-AN/CF) (human, UniProt Q9Y264 25-503, limits assumed)
T2 construct: Bought reagent; also called Ang4
T2 sequence (looked up): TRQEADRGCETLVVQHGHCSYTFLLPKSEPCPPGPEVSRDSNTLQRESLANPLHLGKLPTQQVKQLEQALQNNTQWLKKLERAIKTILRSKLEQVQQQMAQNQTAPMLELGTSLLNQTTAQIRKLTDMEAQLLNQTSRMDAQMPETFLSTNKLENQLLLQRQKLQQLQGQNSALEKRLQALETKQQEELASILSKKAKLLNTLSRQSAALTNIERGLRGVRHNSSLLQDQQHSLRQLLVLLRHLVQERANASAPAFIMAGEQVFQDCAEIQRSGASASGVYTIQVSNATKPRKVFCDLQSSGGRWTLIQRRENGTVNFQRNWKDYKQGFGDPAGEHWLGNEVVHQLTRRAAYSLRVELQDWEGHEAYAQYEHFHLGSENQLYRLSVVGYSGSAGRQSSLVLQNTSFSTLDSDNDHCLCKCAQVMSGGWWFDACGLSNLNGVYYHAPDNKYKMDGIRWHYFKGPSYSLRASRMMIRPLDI

T3: Recombinant human Angiopoietin-2 (R&D Systems Cat No 623-AN/CF) (human, UniProt O15123 19-496, limits assumed)
T3 construct: Bought reagent; also called Ang2; human Ang2
T3 sequence (looked up): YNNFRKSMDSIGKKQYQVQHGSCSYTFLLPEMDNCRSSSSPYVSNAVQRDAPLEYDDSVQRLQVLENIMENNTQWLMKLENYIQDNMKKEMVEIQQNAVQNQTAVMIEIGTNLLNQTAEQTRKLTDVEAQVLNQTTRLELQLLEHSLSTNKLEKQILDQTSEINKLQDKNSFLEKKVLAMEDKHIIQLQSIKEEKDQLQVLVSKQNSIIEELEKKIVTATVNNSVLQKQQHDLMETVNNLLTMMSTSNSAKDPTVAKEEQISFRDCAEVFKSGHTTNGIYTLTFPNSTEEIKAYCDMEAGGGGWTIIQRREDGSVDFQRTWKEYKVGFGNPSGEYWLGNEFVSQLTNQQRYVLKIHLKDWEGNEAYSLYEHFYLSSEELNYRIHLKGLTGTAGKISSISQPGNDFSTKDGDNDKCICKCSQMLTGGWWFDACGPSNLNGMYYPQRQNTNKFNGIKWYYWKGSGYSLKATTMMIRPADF

B1: 166-C1 (VHH)
VHH: EVQLVESGGGLVQAGGSLRLSCAASGFTFGSTTIGWFRQAPGKEREGVSCISTGDGSTYYAESVKGRFTISSDNAKNTVYLQMNSLKPEDTAVYYCALDQAPMWSSWSAPYEYDYWGQGTQVTVSS
notes: Nanobody
B2: 169-B12 (VHH)
VHH: EVQLVESGGGLVQAGGSLRLSCAASGSIFSINAMGWYRQAPGNQRDLVAAITSGDSTKYADFVKGRFTISRDNAKNTVYLQMNSLKPEDTAVYYCAAELLGKWYWGQGTQVTVSS
notes: Nanobody
B3: 169-E12 (VHH)
VHH: EVQLVESGGGLVQAGGSLRLSCAASGSIFSINTMGWYRQAPGNQRDLVAAITNGGSTKYVDSVKGRFTISRDNAKNTVYLQMNSLKPEDTAVYYCAAESLGRWGWGQGTQVTVSS
notes: Nanobody
B4: 169-A12 (VHH)
VHH: EVQLVESGGGLVQPGGSLRLSCVASGSIRSIIHMGWYRQAPGNERDLVAVIIDSRTTKYSESVKGRFTISRDNAKNTVYLQMNSLKPEDTAVYYCNALALGTDQSSTFDSWGQGTQVTVSS
notes: Nanobody
B5: 169-C12 (VHH)
VHH: EVQLVESGGGLVQPGGSLRLSCAASGSIRSIIHMGWYRQTPGNERDMVAVIIDSRTTKYAESVKGRFTISRDNAKNTVYLQMNSLKPEDTAVYYCNALALGTDQSSTFDSWGQGTQVTVSS
notes: Nanobody
B6: 168-A3 (VHH)
VHH: EVQLVESGGGLVQPGGSLRLSCAASGFTLSGNWMYWLRQAPGKGLEWISTITPRGLTAYADSVKGRFTISRDIAENTLYLQMNSLKSGDTAVYYCARDKTGERRGQGTQVTVSS
notes: Nanobody
B7: 168-E5 (VHH)
VHH: EVQLVESGGGLVQPGGSLRLSCAASGFTLSSNWMYWLRQAPGKGLEWISTITPRDLTAYADSVKGRFTISRDNAENTLYLQMNSLKSEDTAVYYCAKDKAGERRGQGTQVTVSS
notes: Nanobody
B8: 169-F11 (VHH)
VHH: EVQLVESGGGLVQPGGSLRLSCATSGFTFSTSWMYWLRQAPGKGLEWVSTITPRGLTDYTNSVKGRFTVSRDNAKNTLYLQMNSLKSEDTAVYYCTKDKNGPPMGQGTQVTVSS
notes: Nanobody
B9: 169-C8 (VHH)
VHH: EVQLVESGGGLVQPGGSLRLSCATSGFTFSTSWMYWLRQAPGKGLEWVSTITPRGLTDYTDSVKGRFTISRDSAKNTLYLQMNSLKSEDTADYYCTRDKNGPPMGQGTQVTVSS
notes: Nanobody
B10: 169-A10 (VHH)
VHH: EVQLVESGGGLVQPGGSLRLSCATSGFTFSPSWMYWLRQAPGKGLEWVSTITPRGLTEYANSVKGRFTISKDNAKNTLYLQMNSLKSEDTAVYYCTRDKNGPPMGQGTQVTVSS
notes: Nanobody
B11: 168-G3 (VHH)
VHH: EVQLVESGGGLVQPGGSLRLSCAASGSTLDYYAIGWYRQAPGKEREWVSCISSSNYGITTYADSVKGRFTISRDNAKNTVYLQMNSLKPEDTAIYYCATNTRRKYGRLCDLNADYWGQGTQVTVSS
notes: Nanobody
B12: 166-D4 (VHH)
VHH: EVQLVESGGGLVQAGGSLRLSCVASGRIFTNTAMGWYRQAPGKWRELVATIYSGGSTKYIDSVKGRFIISRDNTRNTVHLQMNSLKPEDTAVYYCNTVGAGSYWGQGAQVTVSS
notes: Nanobody
B13: 166-E12 (VHH)
VHH: KVQLVESGGGLVQAGGSLRLSCAASGFTFGSTTIGWFRQAPGKEREGVSCISTGDGSTYYAESVKGRFTISSDNAKNTVYLQMNSLKPEDTAVYYCALDQAPMWSSWSAPYEYDYWGQGTQVTVSS
notes: Nanobody
B14: 162-F11 (VHH)
VHH: EVQLVESGGGLVQAGGSLRLSCAASGFTFDDYAIGWFRQAPGKEREGVACISSSDGSTYYADSVKGRFTISSDNAKNTVYLQMNSLKPEDTAVYSCSAGSVAGCIPYYWGQGTQVTVSS
notes: Nanobody
B15: 163-E7 (VHH)
VHH: EVQLVESGGGLVQPGGSLRLSCAASGFTFSDYSMSWVRQAPGKGLEWVSAISGGGEVTTYADSVKGRFTISRDNAKNTLYLQMSSLKPEDTALYYCAEHLNFYSVSVRSSPTSQGTQVTVSS
notes: Nanobody
B16: 163-H8 (VHH)
VHH: EVQLVESGGGLVQPGGSLRLSCAASGFTFGSNGMRWVRQAPGKGPEWVSSINSDGTSTYYAESVKGRFTISRDNAKNTLYLQMHSLKPEDTAVYYCTTTENPNPRGPGTQVTVSS
notes: Nanobody
B17: 163-E9 (VHH)
VHH: EVQLVESGGGLVQPGDSLRLSCAASGFTFGSNGMRWVRQAPGKGPEWVSSINSDGTSTYYADSVKGRFTISRDNAKNTLCLQMNSLKPEDTAVYYCTTTEDPYPRGQGTQVTVSS
notes: Nanobody; also called Nanobody 163E9; Tie-2 Nanobody 163E9
B18: 163-G8 (VHH)
VHH: EVQLVESGGGLVQPGGSLRLSCAASGFTFGSNGMRWVRQAPGKGPEWVSSINSDGTSAFYAESVKGRFTISRDNAKNTLYLQMNSLKPEDTAVYYCTTTMNPNPRGQGTQVTVSS
notes: Nanobody
B19: 162-H10 (VHH)
VHH: EVQLVESGGGLVQPGGSLRLSCAASGFTLDDYAVGWFRQAPGKEREGVSCIGSSYGSTYYADSVKGRFTISRDNAKNTVYLQMNSLKPEDTAVYYCAVQGYSGGYYYTCEDSADFGFWGQGTQVTVSS
notes: Nanobody

Biological target: T1, biotinylated rh Ang2 (R&D Systems Cat …)
Assay: competition ELISA: 0.05 ug/ml biotinylated Ang2 pre-incubated with 10 ul periplasmic extract, then on coated Tie2/Fc (4 ug/ml); bound Ang2 detected with extravidin-HRP; blocked partner: Tie2/Fc
Protocol: Clones tested positive in the Ang2 binding assay are screened for their ability to block Ang2 binding to Tie2/Fc. For this, Nanobody-containing periplasmic extracts (P.E.) are used in an ELISA-based ligand competition setup. In short, 4 ug/ml human Tie2/Fc Chimera (R&D Systems Cat No 313-TI, Lot No BKC06)) is coated in 96 well Maxisorp microliter plates (Nunc) and blocked with 4% Marvel skimmed milk in PBS. In parallel, 0.05 ug/ml biotinylated rh Ang2 (R&D Systems Cat No BT623, Lot No BNR174091) is incubated with 10 ul of periplasmic extract containing nanobody of the different clones in 100 ul 2% Marvel/PBS. After 1 hour, the biotinylated Ang2-Nanobody pre-mixes are incubated 1 hour with the coated receptor. Bound biotinylated. Ang2 is detected using HRP-conjugated extravidin (SIGMA E2886-1mL, 126K4801). Blocking activity is determined as loss of OD signal, as compared to wells where no P.E., or irrelevant P.E., has been added.

Binding result, binds:
B1

Biological target: T2, Recombinant human Angiopoietin-4 (R&D …)
Assay: phage ELISA on coated Ang4: 10 ul monoclonal phage supernatant in 100 ul, anti-M13-HRP, OD 450 nm

Binding result, binds:
B2
B3
B4
B5
B6
B7
B8
B9
B10
B11

Biological target: T3, Recombinant human Angiopoietin-2 (R&D …)
Assay: phage ELISA: 10 ul monoclonal phage supernatant in 100 ul on 0.2 ug/ml coated Ang2, anti-M13-HRP, OD 450 nm
Protocol: In order to determine binding specificity to Ang2, the clones are tested in an ELISA binding assay setup, using the monoclonal phage pools. Phage binding to Ang2 (R&D Systems Cat No 623-AN/CF) is tested. Shortly, 0.2 ug/ml Ang2 is immobilized on Maxisorp ELISA plates (Nuns) and free binding sites are blocked using 4% Marvel skimmed milk in PBS. Next, 10 ul of supernatant from the monoclonal phage inductions of the different clones in 100 ul 2% Marvel. PBS are allowed to bind to the immobilized antigen. […] Binding specificity is determined based on OD values compared to controls having received an irrelevant phage or no phage.

Binding result, binds:
B12
B1
B13

Biological target: T4, recombinant human Tie2/Fc Chimera (R&D Systems Cat No 313-TI, Lot No BKC06) (human, UniProt Q02763 23-745)
T4 construct: Bought reagent; also called receptor; not shown: Fc portion of the bought chimera
Assay: competition ELISA: 0.2 ug/ml Tie2/Fc pre-incubated with 10 ul periplasmic extract, then on coated Ang1 (0.75 ug/ml); bound Tie2/Fc detected with anti-human IgG-HRP; blocked ligand: Ang1
Protocol: Clones tested positive in the Tie2 binding assay are screened for their ability to block Ang1 binding to Tie2/Fc. For this, Nanobody-containing periplasmic extracts (P.E.) are used in an ELISA-based ligand competition setup. In short, 0.75 ug/ml human Ang1 (R&D Systems Cat No 923-AN/CF Lot No FHWO73091) is coated in 96 well Maxisorp microtiter plates (Nunc) and blocked with 4% Marvel skimmed milk in PBS. In parallel, 0.2 ug/ml Tie2/Fc is incubated with 10 ul of periplasmic extract P.E. containing nanobody of the different clones in 100 ul 2% Marvel/PBS. After 1 hour, the receptor-Nanobody pre-mixes are incubated 1 hour with the coated ligand. Bound Tie2/Fc is detected using HRP-conjugated goat anti-human IgG (Jackson Immunoresearch, Cat #109-035-098). Blocking activity is determined as loss of OD signal, as compared to wells where no P.E., or irrelevant P.E., has been added.

T4 sequence (Q02763 23-745, change not shown): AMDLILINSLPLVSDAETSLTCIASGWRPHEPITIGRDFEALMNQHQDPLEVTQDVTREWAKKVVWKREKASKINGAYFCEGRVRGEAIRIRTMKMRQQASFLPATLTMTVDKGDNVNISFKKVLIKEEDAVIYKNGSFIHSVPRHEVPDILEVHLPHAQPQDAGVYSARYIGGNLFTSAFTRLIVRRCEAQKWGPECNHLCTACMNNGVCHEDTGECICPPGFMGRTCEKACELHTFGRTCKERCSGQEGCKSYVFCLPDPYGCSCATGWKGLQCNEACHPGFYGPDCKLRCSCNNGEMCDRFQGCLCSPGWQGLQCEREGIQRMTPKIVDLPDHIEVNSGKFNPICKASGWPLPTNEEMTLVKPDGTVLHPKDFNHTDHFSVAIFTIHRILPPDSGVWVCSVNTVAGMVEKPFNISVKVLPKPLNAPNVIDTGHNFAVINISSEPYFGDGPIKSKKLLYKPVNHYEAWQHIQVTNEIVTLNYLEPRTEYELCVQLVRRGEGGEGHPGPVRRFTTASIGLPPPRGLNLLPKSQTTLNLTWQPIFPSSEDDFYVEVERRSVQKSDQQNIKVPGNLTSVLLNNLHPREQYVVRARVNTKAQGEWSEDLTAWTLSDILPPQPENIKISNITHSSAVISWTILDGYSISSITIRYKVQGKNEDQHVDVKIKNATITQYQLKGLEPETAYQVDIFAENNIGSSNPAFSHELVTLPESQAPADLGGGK

Binding result, binds:
B14
B15
B16
B17
B18
B19
